B1: Cu, Zn superoxide dismutase 1 (SOD1) F20L-H46Q, de-metallated (enzyme)
chain: not shown
B2: Cu, Zn superoxide dismutase 1 (SOD1) H46Q-G108H, de-metallated (enzyme)
chain: not shown

Target: the molecule itself
Assay: SEC + native gel or EMSA

| Protein | stoichiometry N |
| --- | --- |
| B1 | 3 |
| B2 | 3 |

From paper doi:10.1101/2021.08.17.456705 (bioRxiv, 2021)
